Laboratory results: US20100166741A1 (Genentech, published 2010)

Assays:
[1] = biological target: T1, miniBR3 displayed on M13 phage (epitope-tagged, fused to gene-8 major coat protein) (human; bacteriophage M13, UniProt Q96RJ3 17-42); test: shotgun Ala scan, miniBR3 phage
T1 construct: range 17-42; also called p-miniBR3
Source text: Each “partial miniBR3” template was used as the template for Kunkel mutagenesis with mutagenic oligonucleotides designed to replace the template stop codons with the complementary region of miniBR3, while simultaneously introducing mutations at the desired sites. At the sites of mutation, wild-type codons were replaced with the corresponding shotgun alanine codon (Weiss, supra). Each of these two libraries allowed for mutations at 11 residues in miniBR3 with no mutated positions in common between libraries. Library 1 encoded shotgun codons at positions 17, 18, 20-23, 25, 27, 28, 30, and 33, while library 2 encoded shotgun codons at positions 26, 29, 31, 34, and 36-42. Each library contained 2×10⁹ members, allowing for complete representation of the theoretical diversity (>10⁴-fold excess).
The display selection was included in order to normalize the anti-BR3 antibody-binding selection for expression differences between library members. Phage eluted from each target were propagated in E. coli XL1-blue; amplified phage were used for selection against the same target as in the previous round. After two rounds of selection, 48 individual clones from each library and selection were grown in a 96-well format in 400 L of 2YT medium supplemented with carbenicillin and KO7 helper phage.
F-values were calculated as previously described (Weiss, supra-, Gordon, supra). […] Deleterious mutations have ratios >1, while advantageous mutations have ratios <1; boldface indicates a >10-fold effect.

[2] = biological target: T2, human FcγRI extracellular domain, His-tagged GST fusion (human, UniProt P12314 16-292); test: ELISA, captured FcγR-GST, monomeric IgG
T2 construct: extracellular domain; also called hFcgRI; FcγRIA; not shown: C-terminal Gly/His6/GST tag

[3] = biological target: T3, human FcγRIIb extracellular domain, His-tagged GST fusion (human, UniProt P31994 43-217); test: ELISA, captured FcγR-GST, multimeric IgG
T3 construct: extracellular domain; also called hFcgRIIb; CD32B; not shown: C-terminal Gly/His6/GST tag
T3 sequence (looked up): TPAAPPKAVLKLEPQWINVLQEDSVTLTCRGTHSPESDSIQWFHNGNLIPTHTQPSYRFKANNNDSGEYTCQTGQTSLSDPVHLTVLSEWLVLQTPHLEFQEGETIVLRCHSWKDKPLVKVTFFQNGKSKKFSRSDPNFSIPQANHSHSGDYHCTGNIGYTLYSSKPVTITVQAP

[4] = biological target: T4, human FcγRIIa extracellular domain, His-tagged GST fusion (human, UniProt P12318 34-217); test: ELISA, captured FcγR-GST, multimeric IgG
T4 construct: extracellular domain; also called hFcgRIIa; CD32A; not shown: C-terminal Gly/His6/GST tag
T4 sequence (looked up): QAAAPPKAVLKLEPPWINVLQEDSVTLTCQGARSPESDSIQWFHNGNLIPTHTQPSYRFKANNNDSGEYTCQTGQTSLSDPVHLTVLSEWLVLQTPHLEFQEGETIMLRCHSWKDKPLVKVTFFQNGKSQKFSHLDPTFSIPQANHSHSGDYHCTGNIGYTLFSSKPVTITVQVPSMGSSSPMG

| Binder | F value, mutation at BR3 A22 [1] | F value, mutation at BR3 A34 [1] | F value, mutation at BR3 D26 [1] | F value, mutation at BR3 E23 [1] | F value, mutation at BR3 F25 [1] | F value, mutation at BR3 G36 [1] | F value, mutation at BR3 H31 [1] | F value, mutation at BR3 L27 [1] | F value, mutation at BR3 L28 [1] | F value, mutation at BR3 L37 [1] | F value, mutation at BR3 L38 [1] | F value, mutation at BR3 P18 [1] | F value, mutation at BR3 P21 [1] | F value, mutation at BR3 P41 [1] | F value, mutation at BR3 R30 [1] | F value, mutation at BR3 R39 [1] | F value, mutation at BR3 R42 [1] | EC50 [2] [µg/mL] | EC50 [3] [µg/mL] | EC50 [4] [µg/mL] | also measured |
| --- | --- | --- | --- | --- | --- | --- | --- | --- | --- | --- | --- | --- | --- | --- | --- | --- | --- | --- | --- | --- | --- |
| V3-1 (antibody, V domains shown) VH: EVQLVESGGGLVQPGGSLRLSCAASGFTISSNSIHWVRQAPGKGLEWVAWITPSDGNTDYADSVKGRFTISADTSKNTAYLQMNSLRAEDTAVYYCARRVCYNRLGVCAGGMDYWGQGTLVTVSS VL: DIQMTQSPSSLSASVGDRVTITCRASQDVSTAVAWYQQKPGKAPKLLIYSASFLYSGVPSRFSGSGSGTDFTLTISSLQPEDFATYYCQQSRITPPTFGQGTKVEIKR | 0.7 | 13 | 8.7 | 2.4 | 21 | 0.7 | 0.1 | 1.4 | 98 | 0.7 | 1.4 | 0.8 | 0.6 | 1.6 | 20 | 0.4 | 0.9 | – | – | – | F value, mutation at BR3 T17 [1]: 0.5; F value, mutation at BR3 T40 [1]: 0.6; F value, mutation at BR3 V20 [1]: 0.9; F value, mutation at BR3 V29 [1]: 92; F value, mutation at BR3 V33 [1]: 14 |
| 2.1 (antibody, V domains shown, also called chimeric 2.1) VH: EVQLQESGPSLVKPSQTLSLTCSVTGDSITRGYWNWIRKFPGNKLEFMGYINYSGTTYYNPSLKSRISITRDTSKNQYYLQLNSVTTEDTATYYCATPHTYGAMDYWGQGTTLTVSA VL: DIVLTQSPVSLAVSLGQRATISCRASESVDDYGISFMHWYQQKPGQPPKLLIYRASDLESGIPARFSGSGSGTDFTLTINPVETDDVAIYYCQQTSKDPWTFGGGT | 3.2 | 62 | 6.1 | 9.6 | 49 | 14 | 0.6 | 0.8 | 0.1 | 0.1 | 0.9 | 0.5 | 1.9 | 0.7 | 10 | 0.5 | 1.8 | – | – | – | F value, mutation at BR3 T17 [1]: 0.6; F value, mutation at BR3 T40 [1]: 0.2; F value, mutation at BR3 V20 [1]: 3; F value, mutation at BR3 V29 [1]: 0.5; F value, mutation at BR3 V33 [1]: 10 |
| Hu9.1RF IgG1 2% G0-F (antibody, 2% G0-F (afucosylated) Fc glycan content, Same protein as Hu9.1RF IgG1; glycoform composition; also called 2% G0-F GLP-Hu9.1RF IgG1; 2% afucosylated Hu9.1RF IgG1) heavy: not shown light: DIQMTQSPSSLSASVGDRVTITCKSSQSLLYSSNQNNYLAWYQQKPGKAPKLLIYWASTRESGVPSRFSGSGSGTDFTLTISSLQPEDFATYYCQQYYTYPYTFGQGTKVEIKRTVAAPSVFIFPPSDEQLKSGTASVVCLLNNFYPREAKVQWKVDNALQSGNSQESVTEQDSKDSTYSLSSTLTLSKADYEKHKVYACEVTHQGLSSPVTKSFNRGEC | – | – | – | – | – | – | – | – | – | – | – | – | – | – | – | – | – | 0.00392 | 0.96 | 0.3 | – |
| Hu9.1RF IgG1 10% G0-F (antibody, expected 10% G0-F (determined 8%), Mixture of 37% G0-F and 2% G0-F Hu9.1RF IgG1) heavy: not shown light: DIQMTQSPSSLSASVGDRVTITCKSSQSLLYSSNQNNYLAWYQQKPGKAPKLLIYWASTRESGVPSRFSGSGSGTDFTLTISSLQPEDFATYYCQQYYTYPYTFGQGTKVEIKRTVAAPSVFIFPPSDEQLKSGTASVVCLLNNFYPREAKVQWKVDNALQSGNSQESVTEQDSKDSTYSLSSTLTLSKADYEKHKVYACEVTHQGLSSPVTKSFNRGEC | – | – | – | – | – | – | – | – | – | – | – | – | – | – | – | – | – | 0.00391 | 0.88 | 0.24 | – |
| Hu9.1RF IgG1 4% G0-F (antibody, expected 4% G0-F (determined 3%), Mixture of 37% G0-F and 2% G0-F Hu9.1RF IgG1) heavy: not shown light: DIQMTQSPSSLSASVGDRVTITCKSSQSLLYSSNQNNYLAWYQQKPGKAPKLLIYWASTRESGVPSRFSGSGSGTDFTLTISSLQPEDFATYYCQQYYTYPYTFGQGTKVEIKRTVAAPSVFIFPPSDEQLKSGTASVVCLLNNFYPREAKVQWKVDNALQSGNSQESVTEQDSKDSTYSLSSTLTLSKADYEKHKVYACEVTHQGLSSPVTKSFNRGEC | – | – | – | – | – | – | – | – | – | – | – | – | – | – | – | – | – | 0.00373 | 0.95 | 0.26 | – |
| Hu9.1RF IgG1 6% G0-F (antibody, expected 6% G0-F (determined 6%), Mixture of 37% G0-F and 2% G0-F Hu9.1RF IgG1) heavy: not shown light: DIQMTQSPSSLSASVGDRVTITCKSSQSLLYSSNQNNYLAWYQQKPGKAPKLLIYWASTRESGVPSRFSGSGSGTDFTLTISSLQPEDFATYYCQQYYTYPYTFGQGTKVEIKRTVAAPSVFIFPPSDEQLKSGTASVVCLLNNFYPREAKVQWKVDNALQSGNSQESVTEQDSKDSTYSLSSTLTLSKADYEKHKVYACEVTHQGLSSPVTKSFNRGEC | – | – | – | – | – | – | – | – | – | – | – | – | – | – | – | – | – | 0.00412 | 0.91 | 0.23 | – |
| Hu9.1RF IgG1 20% G0-F (antibody, expected 20% G0-F (determined 23%), Mixture of 37% G0-F and 2% G0-F Hu9.1RF IgG1) heavy: not shown light: DIQMTQSPSSLSASVGDRVTITCKSSQSLLYSSNQNNYLAWYQQKPGKAPKLLIYWASTRESGVPSRFSGSGSGTDFTLTISSLQPEDFATYYCQQYYTYPYTFGQGTKVEIKRTVAAPSVFIFPPSDEQLKSGTASVVCLLNNFYPREAKVQWKVDNALQSGNSQESVTEQDSKDSTYSLSSTLTLSKADYEKHKVYACEVTHQGLSSPVTKSFNRGEC | – | – | – | – | – | – | – | – | – | – | – | – | – | – | – | – | – | 0.00374 | 0.82 | 0.17 | – |
| 11G9 (antibody, V domains shown, also called chimeric 11G9) VH: DVQLQESGPSLVKPSQTLSLTCSVTGDSITSGYWNWIRKFPGNKLEYMGYISYSGSTYYNPSLKSRISITRDTSKNQFYLQLLSVTTEDTATYYCAGLDGLYWYFDVWGAGTLVTVSS VL: DIVMTQTPLSLPVSLGDQASISCRSSQSLVHSNGNTYLHWYLQKPGQSPKLLIYKVSNRFSGVPDRFSGSGSGTDFTLKISRVEAEDLGVYFCSQSTHVPPFTFGSGT | 45 | 32 | 8.5 | 6.9 | 38 | 1.8 | 2.8 | 1.1 | 0.4 | 0.7 | 0.9 | 0.5 | 40 | 1.7 | 1.7 | 3.1 | 0.9 | – | – | – | F value, mutation at BR3 T17 [1]: 0.5; F value, mutation at BR3 T40 [1]: 0.5; F value, mutation at BR3 V20 [1]: 1.1; F value, mutation at BR3 V29 [1]: 1; F value, mutation at BR3 V33 [1]: 24 |
